Data set [1] has as its target T1, GTP cyclohydrolase IB (GCYH-IB) (Neisseria gonorrhoeae, UniProt Q5F9K6).
T1 sequence (Q5F9K6 1-257): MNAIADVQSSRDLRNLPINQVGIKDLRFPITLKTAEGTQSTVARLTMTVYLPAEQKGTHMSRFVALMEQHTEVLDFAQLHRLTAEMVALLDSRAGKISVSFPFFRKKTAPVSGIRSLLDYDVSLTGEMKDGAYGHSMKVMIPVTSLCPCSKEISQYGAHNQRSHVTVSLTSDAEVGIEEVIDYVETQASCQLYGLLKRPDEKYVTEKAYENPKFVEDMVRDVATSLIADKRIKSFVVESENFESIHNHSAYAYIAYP
In words: competitive inhibition kinetics, fluorescence assay of neopterin. It is filed as biochemical.

Data set [2] has as its target GTP cyclohydrolase IB (GCYH-IB) (Neisseria gonorrhoeae, UniProt Q5F9K6). In words: X-ray crystal structure at […] Å. Format: biochemical.
Data set [3] concerns the target Neisseria gonorrhoeae GCYH-IB Cys149Ala mutant (Neisseria gonorrhoeae) (UniProt Q5F9K6). The experiment in a line: SEC.
The target of data set [4] is Neisseria gonorrhoeae GCYH-IB Cys149Ser mutant (Neisseria gonorrhoeae) (UniProt Q5F9K6). The experiment in a line: SEC.
Data set [5] deals with Neisseria gonorrhoeae GCYH-IB Glu152Ala mutant (Neisseria gonorrhoeae) (UniProt Q5F9K6). The experiment in a line: SEC.
Data set [6] addresses Neisseria gonorrhoeae GCYH-IB Glu243Ala mutant (Neisseria gonorrhoeae) (UniProt Q5F9K6). In words: SEC.
Data set [7] addresses Neisseria gonorrhoeae GCYH-IB His246Ala mutant (Neisseria gonorrhoeae) (UniProt Q5F9K6). The experiment in a line: SEC.
Data set [8] has as its target Neisseria gonorrhoeae GCYH-IB His246Asn mutant (Neisseria gonorrhoeae) (UniProt Q5F9K6). The experiment in a line: SEC.
Data set [9] concerns the target Neisseria gonorrhoeae GCYH-IB His246Asp mutant (Neisseria gonorrhoeae) (UniProt Q5F9K6). The experiment in a line: SEC.
Data set [10] deals with Neisseria gonorrhoeae GCYH-IB His246Gln mutant (Neisseria gonorrhoeae) (UniProt Q5F9K6). In words: SEC.
The target in data set [11] is Neisseria gonorrhoeae GCYH-IB His246Lys mutant (Neisseria gonorrhoeae) (UniProt Q5F9K6). In words: SEC.
Substrate in the data set “steady-state kinetics”: Nc1nc2c(ncn2[C@@H]2O[C@H](COP(=O)(O)OP(=O)(O)OP(=O)(O)O)[C@@H](O)[C@H]2O)c(=O)[nH]1
The experiment in a line: steady-state kinetics. Conditions: Mn2+ active site. It is filed as biochemical, Neisseria gonorrhoeae.

The data set “crystal structure” deals with the molecule itself. The experiment in a line: crystal structure.

The molecule `Nc1nc2c(ncn2[C@H]2C[C@H](O)[C@@H](COP(=O)(O)OP(=O)(O)OP(=O)(O)O)O2)c(=O)[nH]1` [2′-deoxyGTP] gave a Ki in [1] of 164 µM.

Turning to `Nc1nc2c(ccn2[C@@H]2O[C@H](COP(=O)(O)OP(=O)(O)OP(=O)(O)O)[C@@H](O)[C@H]2O)c(=O)[nH]1` [7-deaza-GTP], the Ki in data set [1] came to 45.7 µM.

Turning to `Nc1nc2c([nH]c(=O)n2[C@@H]2O[C@H](CO[P@@](=O)(O)O[P@@](=O)(O)OP(=O)(O)O)[C@@H](O)[C@H]2O)c(=O)[nH]1` [8-oxo-GTP], in data set [2], affinity was put at a Ki of 0.149 µM.

In turn, “Neisseria gonorrhoeae GCYH-IB Cys149Ala mutant (from UniProt Q5F9K6 1-257) (enzyme)” came in with a stoichiometry N in data set [3] of 4.

On to “Neisseria gonorrhoeae GCYH-IB Cys149Ser mutant (from UniProt Q5F9K6 1-257) (enzyme)”, for which the stoichiometry N in data set [4] is 4.

“Neisseria gonorrhoeae GCYH-IB Glu152Ala mutant (from UniProt Q5F9K6 1-257) (enzyme)” yielded a stoichiometry N in [5] of 4.

“Neisseria gonorrhoeae GCYH-IB Glu243Ala mutant (from UniProt Q5F9K6 1-257) (enzyme)”: in data set [6], the stoichiometry N is 4.

In data set [7], “Neisseria gonorrhoeae GCYH-IB His246Ala mutant (from UniProt Q5F9K6 1-257) (enzyme)” had a stoichiometry N of 4.

For “Neisseria gonorrhoeae GCYH-IB His246Asn mutant (from UniProt Q5F9K6 1-257) (enzyme)”, in data set [8], the stoichiometry N is 4.

The molecule “Neisseria gonorrhoeae GCYH-IB His246Asp mutant (from UniProt Q5F9K6 1-257) (enzyme)” came in with a stoichiometry N in data set [9] of 4.

On to “Neisseria gonorrhoeae GCYH-IB His246Gln mutant (from UniProt Q5F9K6 1-257) (enzyme)”, for which the stoichiometry N in data set [10] is 4.

As to “Neisseria gonorrhoeae GCYH-IB His246Lys mutant (from UniProt Q5F9K6 1-257) (enzyme)”, the stoichiometry N in data set [11] is 4.

B1: GTP cyclohydrolase IB (GCYH-IB) (Neisseria gonorrhoeae FA 1090) (protein)
chain: T1 sequence (Q5F9K6 1-257)
Consider B1, for which, in “steady-state kinetics”, the Michaelis constant (Km) was 9.15 µM.

B2: Neisseria gonorrhoeae GTP cyclohydrolase IB, wild type (enzyme)
chain: T1 sequence (Q5F9K6 1-257)
modifications: S-nitrosylated Cys149 (as purified from E. coli)
On to B2, for which, in “crystal structure”, the “stoichiometry N” value was 4.

(Values after PMC5558430 (The Biochemical journal, 2017).)
